The values that follow come from US20030176674A1 (Human Genome Sciences, published 2003).

For this assay, the target named is T1, secreted form of VEGF-2 polypeptide (human vascular endothelial growth factor 2) (human, UniProt P49767 112-227, limits assumed).
T1 construct: also called secreted VEGF-2 protein
T1 sequence: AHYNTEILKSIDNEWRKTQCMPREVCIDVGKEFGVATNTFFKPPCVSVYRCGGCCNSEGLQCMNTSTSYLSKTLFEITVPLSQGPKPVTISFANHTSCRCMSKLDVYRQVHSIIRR
Nature of the assay: BIAcore (SPR), CM5 chip; antibody captured by goat anti-human Fc; secreted VEGF-2 injected at 2.9-95.2 nM; double reference subtraction. The protocol: A high-density CM5 BIAcore sensor chip was prepared using 10 ug/mL of purified goat anti-human fc antibody as the capture reagent. The optimal pH for immobilization was pH 4 (10 mM sodium acetate). An EDC/NHS complex was applied first to activate the carboxyl groups on the sensor matrix. After the VEGF-2 antibodies were immobilized, the esters were inactivated with ethanolamine. Both a control and an experimental flow cell were used.
The kinetics cycle was performed with the following procedures. The flow rate for the entire binding cycle was 25 uL/minute. The purified VEGF-2 antibody, at 5 ug/mL, was injected only in the experimental flow cell for 1 minute. The secreted form of VEGF-2 was then injected into control and experimental flow cells. The concentration the secreted form of VEGF-2 polypeptide varied for each cycle. The secreted form of VEGF-2 polypeptide (calculated as a 21 kDa dimer) was diluted in HBS-EP from 2 ug/mL (95.2 nM) to-0.06 ug/mL (2.9 nM). Both association and dissociation was 7 minutes. Regeneration was performed using 8 uL of 25 mM HCl for all flow cells.
Evaluation was performed using the double reference subtraction, which subtracts the control flow cell from the experimental and also subtracts a buffer injection.
In general terms: Surface plasmon resonance follows binding to a sensor surface in real time, without labels.

Positions count from the first letter of the chain named.

B1: antibody 1.2.3 (antibody expressed by hybridoma cell line 1.2.3, ATCC Deposit Number PTA-3342) (antibody, human IgG2, V domains shown)
VH: QVQLVESGGGVVQPGRSLRLSCAASGFTFSRYGMHWVRQAPGKGLEWVALIWYDGSNKYYADSVKGRFTISRDNSKNTLYLQMNSLRAEDTAVYYCARDGFGSGCFDYWGQGTLVTVSS
VL: DIVMTQTPLSLSVTPGQPASISCKSSQSLLHSDGKTYLYWHLQKPGQPPQLLIYEVSHRFSGVPDRFSGSGSGTDFTLKISRVEAEDVGLYYCVQSIQLPLTFGGGTKVEIKR
notes: Purified hybridoma antibody from XenoMouse; also called Hybridoma 1.2.3
Regarding B1, binding was characterised by a dissociation constant (Kd) of 0.321 nM; the koff (usually a measure of how fast the partners let go of each other) was found to be 9.49e-05 s⁻¹; the kon – broadly, a measure of how fast the partners come together – amounted to 295000 M⁻¹ s⁻¹.

B2: antibody 1.5.1 (antibody expressed by hybridoma cell line 1.5.1, ATCC Deposit Number PTA-3341) (antibody, V domains shown)
VH: QVQLVESGGGVVQPGRSLRLSCAASGFTFSRYGMHWVRQAPGKGLEWVAIIWYDGSDKYYADSVKGRFTISRDNSKNTLYLQMSSLRAEDTAVYYCARGTVGASFDYWGQGTLVTVSS
VL: B1 VL with H31N, H41Y, Y54N, H58N, L90V, V94L
notes: Purified hybridoma antibody from XenoMouse; VAX1510 is the IgG1 conversion of 1.5.1; also called Hybridoma 1.5.1
B2: binding was put at a Kd of 1.79 nM, the koff came out at 0.000657 s⁻¹ and the kon amounted to 367000 M⁻¹ s⁻¹.
